Key:
ZFN 12257 (synthetic) = assay: cell_activity; settings: K562, pair with 12329 (pairing inferred from adjacent sites), Surveyor assay
[1] = molecular target: CXCR4 isoform b, WT (352 a.a.) (human) (UniProt P61073); assay: flow cytometry on parental SupT1 cells, PE anti-mouse IgG secondary
ZFN 12270 (synthetic) = assay: cell_activity; settings: K562, pair with 12273, Surveyor assay; 34.6% in enriched SupT1 pool, >40% in primary CD4 T cells
ZFN 12273 (synthetic) = assay: cell_activity; settings: K562, pair with 12270, Surveyor assay; 34.6% in enriched SupT1 pool, >40% in primary CD4 T cells
HLA Class I [2] = assay: flow cytometry on parental SupT1 cells, PE anti-mouse IgG secondary
HLA Class I [3] = assay: flow cytometry on SupT1 clone B4, PE anti-mouse IgG secondary
HLA Class I [4] = assay: flow cytometry on SupT1 clone B13, PE anti-mouse IgG secondary
HLA Class I [5] = assay: flow cytometry on SupT1 clone A66, PE anti-mouse IgG secondary
ZFN 12290 (synthetic) = assay: cell_activity; settings: K562, pair with 12281 (pairing inferred from adjacent sites), Surveyor assay
ZFN 12281 (synthetic) = assay: cell_activity; settings: K562, pair with 12290 (pairing inferred from adjacent sites), Surveyor assay
ZFN 12329 (synthetic) = assay: cell_activity; settings: K562, pair with 12257 (pairing inferred from adjacent sites), Surveyor assay

Sequence of UniProt P61073 (P61073 whole entry, canonical isoform): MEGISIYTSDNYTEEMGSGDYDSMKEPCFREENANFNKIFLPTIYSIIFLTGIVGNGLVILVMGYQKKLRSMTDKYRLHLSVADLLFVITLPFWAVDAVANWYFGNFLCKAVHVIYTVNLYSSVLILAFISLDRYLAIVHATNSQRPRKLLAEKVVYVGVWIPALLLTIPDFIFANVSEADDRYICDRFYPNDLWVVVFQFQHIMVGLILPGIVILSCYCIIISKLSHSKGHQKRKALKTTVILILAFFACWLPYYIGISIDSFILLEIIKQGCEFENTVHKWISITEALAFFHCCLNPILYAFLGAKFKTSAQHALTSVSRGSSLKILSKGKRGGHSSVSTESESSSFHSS

With “AGTCAGAGGCCAAGGAAGCTGTTGGCTG (double strand) [CXCR4 12257 target]” the activity (ZFN 12257 (synthetic)) was > 20 % NHEJ.
Work on anti-CXCR4 NT (4G10) (antibody) yielded a Mean Channel Fluorescence [1] of 136.
In the case of anti-CXCR4 mAb (12G5) (antibody), the Mean Channel Fluorescence [1] is reported as 35.
In the case of “ATGACTTGTGGGTGGTTGTGTTCCAGTT (double strand) [CXCR4 12270 target]”, the activity (ZFN 12270 (synthetic)) is reported as > 20 % NHEJ.
With “GGGTAGAAGCGGTCACAGATATATCTGT (double strand) [CXCR4 12273 target]” the activity (ZFN 12273 (synthetic)) was > 20 % NHEJ.
Anti-HLA Cl-I W6/32 (antibody) showed a Mean Channel Fluorescence (HLA Class I [2]) of 83, a Mean Channel Fluorescence (HLA Class I [3]) of 152 and a Mean Channel Fluorescence (HLA Class I [4]) of 170. The Mean Channel Fluorescence (HLA Class I [5]) was 189.
“CCAGAAGGGAAGCGTGATGACAAAGAGG (double strand) [CXCR4 12290 target]” was tested, and the activity (ZFN 12290 (synthetic)) was > 20 % NHEJ.
With “CAGTTGATGCCGTGGCAAACTGGTACTT (double strand) [CXCR4 12281 target]” the activity (ZFN 12281 (synthetic)) was > 20 % NHEJ.
With “TTGGTGGCGTGGACGATGGCCAGGTAGC (double strand) [CXCR4 12329 target]” the activity (ZFN 12329 (synthetic)) was > 20 % NHEJ.

— patent US20100291048A1
